From paper PMC9786172 (Molecules, 2022)

Columns and labels:
[1] = Stability of analytes in rat plasma samples (method validation)
Procedure: QC samples were prepared using the same process as that used for the calibration standards.
Plasma samples (100 µL) were mixed with 300 µL of 5% formic acid (in water) and vortexed for 5 min. Then, 500 µL acetonitrile of containing 20 ng/mL IS was added to the resultant mixture and vortexed for 5 min. After centrifugation at 14,500× g for 10 min at 4 °C, 800 µL of the supernatant was collected, dried under vacuum using a SpeedVac (Eyela, Tokyo, Japan), reconstituted with 50 μL of methanol, and injected into the LC-MS/MS system.
Using the calibration standard and QC samples, the present LC-MS/MS method was validated in terms of its selectivity, LLOQ, linearity, accuracy, precision, recovery, and stability according to the United States Food and Drug Administration guidelines for bioanalytical method validation [20].
Stability was determined under various analytical handling and storage conditions, such as bench-top, freeze–thaw, post-preparative, and long-term storage, at two QC levels (LQC and HQC).

in vivo = assay: in vivo; parameters: species or system Sprague-Dawley rat; conditions: rat
Procedure: Chromatographic analysis was performed on a Shimadzu Nexera LC-30AD UPLC system, and mass spectrometric detection was performed on an LCMS-8050 triple quadrupole mass spectrometer (Shimadzu Co., Kyoto, Japan) in the positive ESI and MRM mode. […] The gradient elution of the mobile phase consisting of 0.1% formic acid in water (solvent A) and 0.1% formic acid in acetonitrile (solvent B) was performed at a flow rate of 0.3 mL/min as follows (solvent A:solvent B, v/v): maintained at 19.3 for 0.01 min; ramped from 19.3 to 39.6 for 2.49 min; maintained at 39.6 for 0.01 min; ramped from 39.6 to 90 for 2.99 min; reverted to 19.3 for 0.01 min; and maintained for 1.99 min (total run time: 7.5 min). The ion source parameters were set as follows: nebulizing gas flow, 3 L/min; drying gas flow, 10 L/min; heating gas flow, 10 L/min; interface temperature, 300 °C; desolvation temperature, 250 °C; and heating block temperature, 400 °C. […] Rats underwent surgical implantation of a cannula in the femoral artery under anesthesia, as previously described. The LOC was dissolved in phosphate-buffered saline (pH 5.7). […] A blood sample of approximately 0.3 mL was collected via femoral artery cannulation at various time points (0, 1, 3, 5, 10, 20, 30, 60, 90, 120, 180, 240, 360, 480, and 600 min), then collected in heparin pre-treated microcentrifuge tubes. These blood samples were centrifuged at 4000× g for 10 min to obtain plasma and were frozen at −20 °C until analysis. Non-compartmental analysis was performed using Phoenix WinNonlin ver. 3.1 (Certara USA Inc., Princeton, NJ, USA) to estimate the following pharmacokinetic parameters: AUClast; total area under the plasma concentration versus time curve from time zero to time infinity (AUCinf); Cmax; Tmax; t1/2; and MRTinf. Values were obtained directly from the concentration–time plot. All values are reported as the mean ± standard deviation.

[2] = in vivo; cited from earlier work

CCCCCCCC/C=C\CCCCCCCC(=O)OC[C@H](NC(=O)[C@H](Cc1c[nH]c2ccccc12)NC(=O)[C@H](Cc1c[nH]cn1)NC(=O)[C@@H]1CCC(=O)N1)C(=O)N[C@@H](Cc1ccc(O)cc1)C(=O)N[C@H](CC(C)C)C(=O)N[C@@H](CC(C)C)C(=O)N[C@@H](CCCNC(=N)N)C(=O)N1CCC[C@H]1C(=O)NCC [LOC]
Autosampler stability (percentage of drug remaining), LQC ([1]; rat plasma samples, post-preparative, 3 ng/mL, 10 °C for 24 h in the autosampler, LC-MS/MS, mean ± SD, n = 5): 102 ± 9% | Autosampler stability (percentage of drug remaining), HQC ([1]; rat plasma samples, post-preparative, 800 ng/mL, 10 °C for 24 h in the autosampler, LC-MS/MS, mean ± SD, n = 5): 92.7 ±1.2% | Bench-top stability (percentage of drug remaining), LQC ([1]; rat plasma, 3 ng/mL, room temperature for 3 h, LC-MS/MS, mean ± SD, n = 5): 105 ± 7% | Freeze-thaw stability (percentage of drug remaining), LQC ([1]; rat plasma, 3 ng/mL, three freezing and thawing cycles every 12 h at −20 °C, LC-MS/MS, mean ± SD, n = 5): 107 ± 4% | Long-term stability (percentage of drug remaining), LQC ([1]; rat plasma, 3 ng/mL, −20 °C for 30 d, LC-MS/MS, mean ± SD, n = 5): 91.2 ± 4.0% | Bench-top stability (percentage of drug remaining), HQC ([1]; rat plasma, 800 ng/mL, room temperature for 3 h, LC-MS/MS, mean ± SD, n = 5): 97.7± 2.0% | Freeze-thaw stability (percentage of drug remaining), HQC ([1]; rat plasma, 800 ng/mL, three freezing and thawing cycles every 12 h at −20 °C, LC-MS/MS, mean ± SD, n = 5): 107 ± 4% | Long-term stability (percentage of drug remaining), HQC ([1]; rat plasma, 800 ng/mL, −20 °C for 30 d, LC-MS/MS, mean ± SD, n = 5): 93.4 ± 2.6% | Recovery values after exposure to different stability conditions ([1]; rat plasma, 3 and 800 ng/mL, range over bench-top, autosampler, freeze-thaw and long-term conditions): 91.2–107% | Tmax (in vivo; male, Sprague-Dawley, sc): 300 min | half-life (in vivo; male, Sprague-Dawley, sc): 172 ± 66 min | level at 1 h (in vivo; male, Sprague-Dawley, sc, 0.122 mg/kg): 11.7 ng/mL

CCNC(=O)[C@@H]1CCCN1C(=O)[C@H](CCCNC(=N)N)NC(=O)[C@H](CC(C)C)NC(=O)[C@@H](CC(C)C)NC(=O)[C@H](Cc1ccc(O)cc1)NC(=O)[C@H](CO)NC(=O)[C@H](Cc1c[nH]c2ccccc12)NC(=O)[C@H](Cc1c[nH]cn1)NC(=O)[C@@H]1CCC(=O)N1 [Leuprolide, pyroGlu-His-Trp-Ser-Tyr-D-Leu-Leu-Arg-Pro-NHEt, reference compound]
Tmax (in vivo; male, Sprague-Dawley, sc): 15 min | half-life (in vivo; male, Sprague-Dawley, sc): 38.2 ± 4.3 min | Calculated plasma concentration at 60 min after subcutaneous administration of LOC (in vivo): 1.86 ng/mL | MRTinf in the intravenous group [2]: 28.1 min
